Results: US20040014131A1, “Assay methods” (Pfizer Inc., priority 2002, published 2004)
[ ]: non-standard residue; d: D form. QSY7 = QSY-7 (maleimide) on Cys; βAla = NCCC(=O)O

T1: human SEP (Homo sapiens, UniProt Q495T6)
T1 construct: The full length human SEP clone was termed MSSE82; made in house; host or cells: CHO cells transfected with plasmid MSSE82; dialysed culture medium used as enzyme
T1 sequence (Q495T6 75-779 limits assumed): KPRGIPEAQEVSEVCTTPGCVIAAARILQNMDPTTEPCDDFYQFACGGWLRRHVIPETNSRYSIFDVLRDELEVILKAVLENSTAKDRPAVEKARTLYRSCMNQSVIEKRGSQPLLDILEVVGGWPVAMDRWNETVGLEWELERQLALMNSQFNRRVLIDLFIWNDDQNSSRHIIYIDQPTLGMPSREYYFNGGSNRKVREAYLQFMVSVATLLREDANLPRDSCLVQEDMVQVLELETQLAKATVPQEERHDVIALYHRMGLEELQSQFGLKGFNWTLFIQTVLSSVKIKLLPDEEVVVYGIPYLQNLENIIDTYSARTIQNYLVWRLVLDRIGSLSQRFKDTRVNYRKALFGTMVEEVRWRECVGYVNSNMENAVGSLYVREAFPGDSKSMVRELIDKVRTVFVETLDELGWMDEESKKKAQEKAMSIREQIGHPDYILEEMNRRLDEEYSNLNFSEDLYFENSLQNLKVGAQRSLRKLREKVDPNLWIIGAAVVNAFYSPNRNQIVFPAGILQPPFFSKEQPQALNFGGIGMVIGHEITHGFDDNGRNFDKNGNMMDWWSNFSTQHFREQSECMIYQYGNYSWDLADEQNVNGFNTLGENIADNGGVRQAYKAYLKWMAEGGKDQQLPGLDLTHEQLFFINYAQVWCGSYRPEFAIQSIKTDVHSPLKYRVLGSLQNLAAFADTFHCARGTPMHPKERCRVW

T2: mouse SEP (Mus musculus, UniProt Q9JLI3)
T2 sequence (Q9JLI3 1-765): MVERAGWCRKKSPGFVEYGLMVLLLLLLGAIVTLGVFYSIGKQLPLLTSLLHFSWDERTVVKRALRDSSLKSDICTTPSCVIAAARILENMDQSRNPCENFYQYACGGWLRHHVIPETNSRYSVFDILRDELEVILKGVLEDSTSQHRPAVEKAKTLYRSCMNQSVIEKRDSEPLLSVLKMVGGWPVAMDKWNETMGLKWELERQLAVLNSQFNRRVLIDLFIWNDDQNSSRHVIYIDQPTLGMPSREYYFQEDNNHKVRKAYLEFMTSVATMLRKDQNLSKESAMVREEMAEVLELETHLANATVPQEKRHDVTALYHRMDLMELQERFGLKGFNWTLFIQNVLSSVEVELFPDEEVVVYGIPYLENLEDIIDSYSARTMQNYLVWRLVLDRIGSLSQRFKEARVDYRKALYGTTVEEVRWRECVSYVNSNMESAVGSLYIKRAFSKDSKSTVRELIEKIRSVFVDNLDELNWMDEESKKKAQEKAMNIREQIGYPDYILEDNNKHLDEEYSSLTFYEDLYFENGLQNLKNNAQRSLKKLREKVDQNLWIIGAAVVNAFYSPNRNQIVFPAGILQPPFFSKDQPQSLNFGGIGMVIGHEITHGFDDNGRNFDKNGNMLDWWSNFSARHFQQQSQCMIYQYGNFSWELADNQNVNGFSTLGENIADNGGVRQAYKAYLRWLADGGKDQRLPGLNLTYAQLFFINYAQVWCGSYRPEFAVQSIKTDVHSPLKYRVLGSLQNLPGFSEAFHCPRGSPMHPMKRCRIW

T3: Rhodamine green-Gly-Gly-dPhe-Leu-Arg-Arg-Val-Cys(QSY7)-betaAla-NH2
T3 chain: GGFLRRVCA

B1: Recombinant human NEP enzyme (neutral endopeptidase, neprilysin, EC 3.4.24.11) (protein)
chain: DDGICKSSDCIKSAARLIQNMDATTEPCTDFFKYACGGWLKRNVIPETSSRYGNFDILRDELEVVLKDVLQEPKTEDIVAVQKAKALYRSCINESAIDSRGGEPLLKLLPDIYGWPVATENWEQKYGASWTAEKAIAQLNSKYGKKVLINLFVGTDDKNSVNHVIHIDQPRLGLPSRDYYECTGIYKEACTAYVDFMISVARLIRQEERLPIDENQLALEMNKVMELEKEIANATAKPEDRNDPMLLYNKMTLAQIQNNFSLEINGKPFSWLNFTNEIMSTVNISITNEEDVVVYAPEYLTKLKPILTKYSARDLQNLMSWRFIMDLVSSLSRTYKESRNAFRKALYGTTSETATWRRCANYVNGNMENAVGRLYVEAAFAGESKHVVEDLIAQIREVFIQTLDDLTWMDAETKKRAEEKALAIKERIGYPDDIVSNDNKLNNEYLELNYKEDEYFENIIQNLKFSQSKQLKKLREKVDKDEWISGAAVVNAFYSSGRNQIVFPAGILQPPFFSAQQSNSLNYGGIGMVIGHEITHGFDDNGRNFNKDGDLVDWWTQQSASNFKEQSQCMVYQYGNFSWDLAGGQHLNGINTLGENIADNGGLGQAYRAYQNYIKKNGEEKLLPGLDLNHKQLFFLNFAQVWCGTYRPEYAVNSIKTDVHSPGNFRIIGTLQNSAEFSEAFHCRKNSYMNPEKKCRVW
B2: human soluble secreted endopeptidase (human SEP), recombinant (protein)
chain: RKPRGIPEAQEVSEVCTTPGCVIAAARILQNMDPTTEPCDDFYQFACGGWLRRHVIPETNSRYSIFDVLRDELEVILKAVLENSTAKDRPAVEKARTLYRSCMNQSVIEKRGSQPLLDILEVVGGWPVAMDRWNETVGLEWELERQLALMNSQFNRRVLIDLFIWNDDQNSSRHIIYIDQPTLGMPSREYYFNGGSNRKVREAYLQFMVSVATLLREDANLPRDSCLVQEDMVQVLELETQLAKATVPQEERHDVIALYHRMGLEELQSQFGLKGFNWTLFIQTVLSSVKIKLLPDEEVVVYGIPYLQNLENIIDTYSARTIQNYLVWRLVLDRIGSLSQRFKDTRVNYRKALFGTMVEEVRWRECVGYVNSNMENAVGSLYVREAFPGDSKSMVRELIDKVRTVFVETLDELGWMDEESKKKAQEKAMSIREQIGHPDYILEEMNRRLDEEYSNLNFSEDLYFENSLQNLKVGAQRSLRKLREKVDPNLWIIGAAVVNAFYSPNRNQIVFPAGILQPPFFSKEQPQALNFGGIGMVIGHEITHGFDDNGRNFDKNGNMMDWWSNFSTQHFREQSECMIYQYGNYSWDLADEQNVNGFNTLGENIADNGGVRQAYKAYLKWMAEGGKDQQLPGLDLTHEQLFFINYAQVWCGSYRPEFAIQSIKTDVHSPLKYRVLGSLQNLAAFADTFHCARGTPMHPKERCRVW

Columns and labels:
human SEP = target: T1, human SEP; assay: human SEP activity, sensitivity to inhibitors; type: biochemical
Method: The enzymatic (proteolytic) activity of human SEP protein can be measured in an assay involving, for example, mixing a sample of the human SEP enzyme with a substrate peptide in a buffer solution (for example 50 mM HEPES; pH 7.4), incubating the mixture for a period of time (such as 1-3 hours) enough for human SEP to act to cleave a measurable portion of the peptide substrate to a product at a temperature suitable for SEP activity (typically 30-37° C.).
The effect of candidate human SEP inhibitor compounds or control test compounds such as phosphoramidon and thiorphan that may alter the activity of human SEP can be measured in this type of assay by including them in the initial mixture at a range of suitable test concentrations, typically 0.1 nM to 50 μM.
To determine the IC50 of SEP inhibitors (SEPi; for example, phosphoramidon), multiple SEP assays are performed as described above with a range of test concentrations of inhibitor included in the 50 μl of DMSO solution (made by appropriate dilution of a 10 mM 100% DMSO stock of inhibitor with 4% DMSO/50 mM HEPES pH7.4.). Using a suitable standard graph fitting computer program, a sigmoidal dose response curve is fitted to a plot of log inhibitor concentration versus MaxV (or % inhibition or % activity). The IC50 is calculated as the inhibitor concentration causing 50% maximal inhibition. […]

mouse SEP = target: T2, mouse SEP; details: cited from earlier work
[1] = target: T4, Recombinant human NEP enzyme (Homo sapiens, UniProt P08473); assay: NEP FRET assay (384 well, homogeneous); type: biochemical; details: steady state kinetics of NEP enzyme with the peptide substrate
T4 construct: made in house; host or cells: Pichia pastoris
Method: All assays were conducted in 384 well black, flat bottom plates, purchased from Matrix Technologies Ltd. (Cheshire, UK).
Compounds for screening were supplied as singles at 40 μM in 1% DMSO to achieve a final screening concentration of 10 μM.
The peptide substrate (Rhodamine green-Gly-Gly-dPhe-Leu-Arg-Arg-Val-Cys(QSY™7)-βAla-NH2) (SEQ ID NO: 8) was made as described above and labelled with fluorophores purchased from Molecular Probes, Inc. All other reagents were purchased from Sigma/Aldrich (Poole, Dorset, UK).
Recombinant human NEP enzyme was expressed using Pichia pastoris and purified to homogeneity using a three-step purification procedure.
All assays were performed in 50 mM Hepes buffer pH 8, 0.1% v/v pluronic-F127 and 1% v/v protease inhibitor cocktail (antipain, aprotinin, leupeptin, pepstatin A). 10 μl of compound in 1% DMSO was added to each well, followed by 20 μl of recombinant enzyme (10 nM final concentration). The reaction was initiated by the addition of 10 μl of substrate (1 μM final concentration) and plates were incubated at 25° C. for one hour. Termination of the reaction was achieved by the addition of 20 μl of Stop (excess of a known inhibitor) to a concentration of 10 μM in the well. Plates were counted using Tecan Ultra (485 nm excitation, 535 nm emission; Tecan Austria, Salzburg, Austria). […]

[2] = target: T3, Rhodamine …

T4 sequence (P08473 whole entry): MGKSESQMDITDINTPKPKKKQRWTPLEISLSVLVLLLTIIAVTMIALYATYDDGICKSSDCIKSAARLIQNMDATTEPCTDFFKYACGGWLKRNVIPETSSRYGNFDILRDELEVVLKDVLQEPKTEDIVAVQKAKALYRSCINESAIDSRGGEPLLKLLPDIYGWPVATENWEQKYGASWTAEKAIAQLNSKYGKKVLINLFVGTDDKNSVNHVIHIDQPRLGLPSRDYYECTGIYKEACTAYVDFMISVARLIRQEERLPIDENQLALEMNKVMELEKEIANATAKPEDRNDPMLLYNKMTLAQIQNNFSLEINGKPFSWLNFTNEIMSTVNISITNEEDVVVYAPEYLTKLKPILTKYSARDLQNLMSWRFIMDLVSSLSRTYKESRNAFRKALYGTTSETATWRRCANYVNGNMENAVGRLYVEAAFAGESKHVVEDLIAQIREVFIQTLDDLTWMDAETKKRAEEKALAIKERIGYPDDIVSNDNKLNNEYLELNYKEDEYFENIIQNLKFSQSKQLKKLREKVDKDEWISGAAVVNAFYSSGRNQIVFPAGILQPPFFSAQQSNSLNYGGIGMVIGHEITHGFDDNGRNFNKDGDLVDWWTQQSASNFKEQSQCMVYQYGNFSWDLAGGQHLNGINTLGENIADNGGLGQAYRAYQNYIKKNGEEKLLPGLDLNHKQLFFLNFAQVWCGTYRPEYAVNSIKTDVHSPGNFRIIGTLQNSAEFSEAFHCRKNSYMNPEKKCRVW

Molecule | sensitivity of human SEP to inhibitor (human SEP) | sensitivity of mouse SEP to inhibitor (mouse SEP) | cleavage of the FRET substrate, monitored by fluorescence [2] | other results
CC(C)C[C@H](NP(=O)(O)O[C@@H]1O[C@@H](C)[C@H](O)[C@@H](O)[C@H]1O)C(=O)N[C@@H](Cc1c[nH]c2ccccc12)C(=O)O [phosphoramidon] | sensitive | sensitive |  | 
O=C(O)CNC(=O)C(CS)Cc1ccccc1 (centres unmarked) [thiorphan] | sensitive | sensitive |  | 
Rhodamine green-Gly-Gly-dPhe-Leu-Arg-Arg-Val-Cys(QSY™7)-βAla-NH2 ({Rhodamine green}-GG[dF]LRRVC(QSY7)[βAla]-NH2) [CP4] |  |  |  | Kcat [1]: 0.083 s⁻¹; Km ([1]; 50 mM Hepes pH 8, 25° C.): 8 µM
B1 |  |  | CP4 is cleaved by endopeptidases NEP or SEP, creating the cleavage product Rhodamine green-Gly-Gly-dPhe-Leu-Arg-Arg-OH | Kcat [2]: 0.083 s⁻¹; Kcat/Km [2]: 10,500 M^-1 S^-1; Km [2]: 8 µM
B2 |  |  | CP4 is cleaved by endopeptidases NEP or SEP, creating the cleavage product Rhodamine green-Gly-Gly-dPhe-Leu-Arg-Arg-OH | 
